To fix the notation:
B5: HigA antitoxin of the His6-HigBHigA complex (natural protein, Proteus vulgaris (plasmid Rts1), UniProt Q7A224 1-104, looked up)
chain: MRQFKVSHPGEMIARDLEDMGVSGRRFAHNIGVTPATVSRLLAGKTALTPSLSIRIAAALGSTPEFWLRLQSNYDLRQLENQIDTSGIVLYGESNEQQQNAQEH

Like-named read-outs stand apart in the source and are kept apart here.

Data set [1] concerns HigB (of wild-type HigB2HigA2 complex);HigA (of wild-type HigB2HigA2 complex) (Proteus vulgaris (plasmid Rts1);Proteus vulgaris (plasmid Rts1)). The data set is described as follows: EMSA. The following applies: binding buffer pH not stated ([…]. In general terms: In EMSA bound probe runs differently from free probe, usually more slowly.
Data set [2] has as its target T1, HigA antitoxin of the complexes analysed by size exclusion chromatography (Proteus vulgaris (plasmid Rts1), UniProt Q7A224 1-104).
T1 sequence (looked up): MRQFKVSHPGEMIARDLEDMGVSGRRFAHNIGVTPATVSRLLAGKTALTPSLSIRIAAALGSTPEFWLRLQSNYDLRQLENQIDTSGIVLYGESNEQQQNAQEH
The data set is described as follows: SEC. A general note: Size exclusion chromatography separates by hydrodynamic size, large species first.

The target in data set [3] is B5. Put plainly: crystal structure.
Data set [4] concerns the molecule itself. Put plainly: crystal structure.
Data set [5] deals with the molecule itself. Put plainly: crystal structure. This is another data set of the same source.

Experimental findings from doi:10.1101/2021.03.04.434028 (bioRxiv, 2021) are described below.

Molecule O1-O2(scrambled) (O1 only) showed a Kd in data set [1] of 360 nM.
Same read-out and setting: for O1(scrambled)-O2 (O2 only) the value was 240 nM.

B1: HigB(L5ext), HigB with loop 5 extended by NGNG (natural protein)
chain: MIKSFKHKGLKLLFEKGVTSGVPAQDVDRINDRLQAIDTATEIGELNRQIYKLHPLKGDREGYWSITVRANWRITFQFINGDNGNGAYILNYEDYH
As to B1, the binding result in data set [2] is on record as “binds”.

B2: HigB toxin of the His6-HigBHigA complex (natural protein)
chain: MIKSFKHKGLKLLFEKGVTSGVPAQDVDRINDRLQAIDTATEIGELNRQIYKLHPLKGDREGYWSITVRANWRITFQFINGDAYILNYEDYH
Take B2: the binding result in data set [3] is “binds”.

B3: Wild-type HigB toxin of the HigB2HigA2 complex analysed by size exclusion chromatography (natural protein)
chain: MIKSFKHKGLKLLFEKGVTSGVPAQDVDRINDRLQAIDTATEIGELNRQIYKLHPLKGDREGYWSITVRANWRITFQFINGDAYILNYEDYH
Turning to B3, the binding result in data set [2] was “binds”.

B4: HigA antitoxin with C-terminal His6 tag of the HigBHigA-His6 complex (selenomethionine-derivatized) (natural protein, Proteus vulgaris (plasmid Rts1), UniProt Q7A224 1-104, looked up)
chain: MRQFKVSHPGEMIARDLEDMGVSGRRFAHNIGVTPATVSRLLAGKTALTPSLSIRIAAALGSTPEFWLRLQSNYDLRQLENQIDTSGIVLYGESNEQQQNAQEH
modifications: selenomethionine-derivatized
Take B4: in data set [4], the “stoichiometry N” value worked out at 2.
On to B5, for which the “stoichiometry N” value in data set [5] is 2.

Broadly, the Kd is the constant that tells how readily two partners part at equilibrium. Higher therefore signals a looser complex. As a reminder, the stoichiometry N is the number of molecules, sites or subunits per partner or assembly.
